Test results taken from patent US20180073039A1 (SINAI HEALTH SYSTEM, published 2018).
Blank lines part the entries; values can stand above or below the molecule they belong to.

How the values were obtained:
[1] = tested on: ubiquitylated HA-PALB2 (1-103) (in vitro ubiquitylated by CRL3-KEAP1)
HA-PALB2 (1-103) = tested on: T1, HA-PALB2 (1-103)
T1 sequence: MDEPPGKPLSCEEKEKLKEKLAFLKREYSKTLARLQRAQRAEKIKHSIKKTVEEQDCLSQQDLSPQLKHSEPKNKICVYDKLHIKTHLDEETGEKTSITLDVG

[2] = molecular target: T2, BRCA2 (Homo sapiens breast cancer 2) (human, UniProt P51587 1-3418); experiment: PALB2 immunoprecipitation from 293T extracts synchronized in S or G1, immunoblot
T2 construct: Endogenous protein in 293T extracts, detected by immunoblot

Molecule: glutathione S-transferase (GST)-USP11 (Sus scrofa (pig) USP11)
deubiquitylation reaction, immunoblot [1]: recombinant USP11 can directly de-ubiquitylate PALB2 (1-103)

Molecule: recombinant CRL3-KEAP1 (neddylated CUL3/RBX1 with GST-mKEAP1)
in vitro ubiquylation of HA-PALB2 (1-103), immunoblot and mass spectrometry (HA-PALB2 (1-103)): ubiquitylation of the N-terminus of PALB2 (residues 1-103; fused to a haemagglutinin (HA) epitope tag) could be readily reconstituted by recombinant CRL3-KEAP1

binding result [2]: binds
B1: PALB2 (partner and localizer of BRCA2) (other)
chain: MDEPPGKPLSCEEKEKLKEKLAFLKREYSKTLARLQRAQRAEKIKHSIKKTVEEQDCLSQQDLSPQLKHSEPKNKICVYDKLHIKTHLDEETGEKTSITLDVGPESFNPGDGPGGLPIQRTDDTQEHFPHRVSDPSGEQKQKLPSRRKKQQKRTFISQERDCVFGTDSLRLSGKRLKEQEEISSKNPARSPVTEIRTHLLSLKSELPDSPEPVTEINEDSVLIPPTAQPEKGVDTFLRRPNFTRATTVPLQTLSDSGSSQHLEHIPPKGSSELTTHDLKNIRFTSPVSLEAQGKKMTVSTDNLLVNKAISKSGQLPTSSNLEANISCSLNELTYNNLPANENQNLKEQNQTEKSLKSPSDTLDGRNENLQESEILSQPKSLSLEATSPLSAEKHSCTVPEGLLFPAEYYVRTTRSMSNCQRKVAVEAVIQSHLDVKKKGFKNKNKDASKNLNLSNEETDQSEIRMSGTCTGQPSSRTSQKLLSLTKVSSPAGPTEDNDLSRKAVAQAPGRRYTGKRKSACTPASDHCEPLLPTSSLSIVNRSKEEVTSHKYQHEKLFIQVKGKKSRHQKEDSLSWSNSAYLSLDDDAFTAPFHRDGMLSLKQLLSFLSITDFQLPDEDFGPLKLEKVKSCSEKPVEPFESKMFGERHLKEGSCIFPEELSPKRMDTEMEDLEEDLIVLPGKSHPKRPNSQSQHTKTGLSSSILLYTPLNTVAPDDNDRPTTDMCSPAFPILGTTPAFGPQGSYEKASTEVAGRTCCTPQLAHLKDSVCLASDTKQFDSSGSPAKPHTTLQVSGRQGQPTCDCDSVPPGTPPPIESFTFKENQLCRNTCQELHKHSVEQTETAELPASDSINPGNLQLVSELKNPSGSCSVDVSAMFWERAGCKEPCIITACEDVVSLWKALDAWQWEKLYTWHFAEVPVLQIVPVPDVYNLVCVALGNLEIREIRALFCSSDDESEKQVLLKSGNIKAVLGLTKRRLVSSSGTLSDQQVEVMTFAEDGGGKENQFLMPPEETILTFAEVQGMQEALLGTTIMNNIVIWNLKTGQLLKKMHIDDSYQASVCHKAYSEMGLLFIVLSHPCAKESESLRSPVFQLIVINPKTTLSVGVMLYCLPPGQAGRFLEGDVKDHCAAAILTSGTIAIWDLLLGQCTALLPPVSDQHWSFVKWSGTDSHLLAGQKDGNIFVYHYS
notes: Endogenous protein in extracts of human 293T cells, immunoprecipitated with rabbit anti-PALB2 or detected by immunoblot; NCBI NP_078951.2
